Experiment: protease stability score; higher = more stable; yeast display proteolysis, trypsin and chymotrypsin;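 further: relative to predicted unfolded state with 0 unfolded-like and 1 meaning tenfold more protease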

Row | Sequence | protease stability score
1 | EEEEKEADEEVRIMIKSLYTGDEDTVHEMADPNALVKVGDKTIHGMHLFLHTWIRRMEKHGIRVEVRLDDLEIQGEKIHIHLTLIYRFNGKDYPIEFEIHVNKINGQWRVSEIIEI | 1.25
2 | SEEHRDIEIARHIWVDMLRTGDERKSKELADPHVQIHFENRIYHGREEWERMIHELIHTLGADHIEIRIHSIEVQGDKILVHFHIEFQVNGKYLRYDSRSVFIKINGQWHLRSVYII | 1.25
3 | SEEEEMVKRLVEIIARMLETGDEDTLLELLDPEPRIEIGDKRFHGWEEFHKEEHKRLREMRVNSTHIEDVKVYNGRARIHLRIDGSIDGRRIEMRSHFIVQKINGRWSITSVIIR | 1.52
4 | SEIEHNLRLAEELLEKVTQTGNEELLHDLIDPNVRFYINGRDFVGREKNIKVFRSWGIDRVHFESEHIDIQGNKINFHGQINVNGKSMDTQIIAVKVNGRWLIKESWVD | 0.565
5 | DKDEEDLRHVLHLLSRAFMTGDEDELTKLMDPDVRIYYGDKRLHGREEVTRWIREIRAWVHDSKIRHIRRQGEKIILHGEMDMIFDQGDKEVRTRTEITIHTTKINGRWLLNELELR | 2.6
6 | SEDEEIHRKMFEDILHALRTGDWRELKHNLDPNVRLEVDGREIHGWEEVVKFLHEARVEHIEMRIRHVEFQGEKIISHRHMIFHKDVNGVRVDQRHDFTTIILKVNGRWRYHSIKID | 1.36
7 | HKLDEITKDMLEIFEKHSQTGDFQSLAKNVDPHARVDWDGRQFHGREDVQEVMIRLGVDHIEFKRIDIQGEWVHMDGQVYVNGRTTRTEFVSLKVNGRWYIHELRVR | 0.875
8 | DEEMQLAEEMSRKFLHNWHTGDWRIMSHLIDPDVKIIIVVGDKRIELHGRENFVKEIIRWLHHLRETDRRVDHLRIQGDKAHVRVTVHVRYGDKTMDLDEDIRILVVNGKIHSIEIIQV | 1.02
9 | DEETEEIELAFHFFQHAYETGNEEVLMELADPDVKIDVNGRKLHGRERVWKFLIHHWHHLGIKHIHMDRIEIYGNKVVVDGEIKYGDKSDETIMYVVKVDGRWKLEMIEVK | 1.47
10 | SEEEIMTKLAEKILKMHWDTGDERIRKELADPHVRIDQGDFNLHGWEVLHLTLNLLGVTKFRLHILEIHDVSMQGDKIEMDIEVHMHVNGRKISFRVQVHSIKIDGKWKQHSLIIH | 0.153
11 | SEDIDIAREMADIIIKYWETGDEDNVRQLMDPNVKFHIGDKVNIGREWMLEFVRHWKEHARMHLKVEDFRIVGDKIHVDTRIELNVNGREMHIDLHIHLRIVNGRLKSSHIEHR | 1.19
12 | SEVEEEMEEILKKLLTAFRTGDEKTLEDLLDPHVRLEIGDKTHVGWRDIAEFLRRHIERVDHMRINIDHMEIQGEKIHIDGTLHFWIGDKRHHEKVHLIFVIVNGRLKKIHIHKI | 2.64
13 | SEEEETLRDALELVREVLETGDPHLSERLFDPDVRVIYGDKHYHGREYASEMIRFMGVKHFHIKSVRDVDGQVDIDTETHFNGKKYRMHLQTKKIDGKWHLRIIEFR | 1.39
14 | SEEEHLLKFFLDVLMDLHSTGDERKLYELFDPNVRIEYDGKETHGRERAREQFQEMRVRVEHVHIKDLTLQGDKVIIDTKVDMTIHIDGKTIREDRKLQVDFDKVDGRWTVHELIFR | 1.13
15 | DEEEKESRLALEEFLTMMKTGDEDRFTELADPHARSHYNGREHHGREVFLDWFRRVKGLKVDLQHVKTFNGRIIIHVRFHYDGVTYYVEIFVEKFDGRWYLTRVHHI | 0.421
16 | HEHEELLREYVERLLEIWRTGDEEKFMKNADPNVRIVYGDKDVHGREIWVEHFKRLFEELGFKYIDLRRVELINGVLHVHGNWNVNGRERKTELEFKIIDGRITSVQIRVH | 1.27
17 | DEEEEEWERIARRLVKAWLTGDEDLLSFLADPHVRLHVGDKHNHGREHVERHWKEYLDRVKNVRIHVHHVEIQGEKIIIHVEVEINGRTFNMRVIIIVINGRIKEIVIHIH | 0.635
18 | SEHEEHIKRHIEHVIHHWMTGNWEELLRLMDPNVRLILHIGDKEIHSIGMEEILRRLHEYKKKIKNATIHIDHIDMQGDKTTIHETIHIGDYVYDTRIILVIVNGRIKRIEYQVH | 0.128
19 | SEDEKRAKEFDERFNENLLTGNFEKLLHLADPNAKVFYNGQENHGMHLFLKWMVELLKQIRVEDVELDDYKIYGEKIVLDVTIHTRFDGQETEWKTRIITTKVDGRWVLKTVEIR | 1.45
20 | DDEKEITHTLSEIWIHTVRTGDEDTATNLVDPHARLDYNGREFHGRELISELMIRHLTEWRITHIHIDHVRVINGRFEIHSHQDGHFDGVRRKVEVHIDIIIIDGVVKEIRIRVH | 1.17
21 | SEDERELKHWQTIALRLWKTGDFKSELENLDPHARLHINGVHIIGRERMKEFLERIKNLRVEHLHDEHVHIQGDKITLHGHMDVIINGQRTEVDYEFILLKVNGRWLDHSIEMR | 1.1
22 | DEERELLKRFIELWFHAIKTGDEDQLIRLLDPHVRIDINGVDIHGMEKYIHEHLRLERERGFEIRDFKIKHIEIQGEKAHVDTRLSGMVDGRHVDVRNRFIIYKFNGRWIFHSFHVD | 1.24
23 | TEEDEMWKELSDILLEIHETGDWDRLIRLVDPDVKVNIDGKDLHGWQEVAHTIRVLLEQFKGVKIIIRHVEIQGDKVHIHMEIRQGDKHYEVHLHYIVVNGKIKQMHMHRR | 1
24 | SEEEWLTEYIWRVFIRLLLTGDERAINKLLDPHVQVDVGDKRIHGRELLSHIWRTEAEEIRHHIEVKRFHSQGEKVHHDVRITIIINGQVHRIEAHIHLFIYDGRITHIEVEFR | 1.36
25 | DEDKEEAMKFLRLWFHSVLTGDEDELTRLLDPNTRIVIDGRTFVGREEMVFVMREMRVHHFHIKDVHLVNGVAHIDTHSDIEFNGRRYRTDTEISVLKVDGKWILKSVKIR | 2.42

Row | Sequence | protease stability score
26 | DESAVNNLVRLAKAWLRGDPKKIEHLVDKDAKAQIGDKTLHGREDLKDHADELRKDMTVDVKSVTNNNQNGQAVVDVKFEADRNGRPETHTLDAKATAHNGDIVDVKIHQDG | -0.049
27 | DEERRRDEEDWRFLEHVWETGDFDALVNMIDPNVRIEFEGRTHHGREDASHLIKRLGVKYFEVKSQNIQGDYIIDDVEFRVGEYRTRVRIIIHKIDGKWYIHSLHIL | 0.913
28 | SEEEELWEELKELSEEWFETGDEDRLLEMADPHVKVVFNGKHEHGREALRLVLETMKRRFKNATYHPHTIELQGEKVFLKIKVRVGDKEQELEIILIIVDGRLKEIRIHIRIK | 2.62
29 | SEQEESRRWWLEELLTFLVTGDENRLKELLDPDVRVVVNGKHLHGMEAFEEYLRQIDHVDSHKVTDVKVQGNKIIVHTRAKINVDGRHVETELIFIVHKIDGKWKLHSFESR | 1.69
30 | DEDRKEMEEILRLYLEAFLTGDEKLLRHLVDPHVKLDINGVRLHGMDLLIKLLIHEARFFKGMKVEIRIHRVHVQGDKVENDTELILIFDGREFRRRTFLLWLKIDGRWLLESERIE | 1.45
31 | TEEKEDKDRWYEEVLRAVLTGDFHFLSRLADPDVRVEYGDKEHVGREEVSRFWQEFFERIKNVTIELHDYKVQGDKIHWLINLRFNGREHIVHIELIIIDGRIHEIRVQIR | 2.02
32 | SELEEQVKYALELFIRTFETGDEDLSSQLLDPNTRLEINGREIHGRELVSKFWLKFATEMRLRRTHTRSIRNVDGKAINHTTIDVEIGDKRTTIDVELIAYKFDGRWVNEKIQFH | 0.828
33 | DEKEEFMKKLSKLFVELWITGNEEIFNKLMDPNTRSDVNGVENIGRDEIIRFWKEWRRRFGIKHIEVEHVHAIGDKIEIHGIQKAENHHTEIHIRVNVVDGRIREVEVRTH | 2.26
34 | DEIKKVALKMADLIFELYLTGNEELLRKLADPHMKLIIDGREFHGMHVSHEWILRELKEIRIEDWKIKDVHLQGNKVHIDLRVHGVVDGQREERDVKIHIIVINGRIHSMEMHKE | 2
35 | SEEHEISERLAWMIFELYRTGNEQSIRHLMDPRARIDVNGKEIHGRHIWKERFEEHLVFFKNLRFHLDDVDVQGDKIDIHGTNRFDGRHVRFDLHIHVVDGRLKVITVRIDER | 1.55
36 | DKEEKELEELVKLMVELSDTGDWKTFYQLADPHTKLHNLVDGKWDEQHGRENFVEVERKLRERFKGLRVERHDISVQGNKVHVDVILHVNGREMEIDEVFVIINGKLESVEIHVR | 1.19
37 | DEEDHILLEIMRRVFESIMTGDEDLFRELADPNVRIRIGNKEMVGWEHIVKTLRKEDEDLGAKHKSFTLDDEDLIGNYAHVEGTLHIEFNGKDIHRHIRINVEVIDGRVKSIRMEDK | 0.936
38 | DEDEERKHKILEIWLHSLETGDETKLEEMVDPNVRIEFNGREHHGWEHFLEFVRVFGAKVLHLEDEREDGNKIIHHIVVHVNGRRHTLIVIAHKVNGRWVISSIRFE | 1.45
39 | DEDRKTVELAERLLKEMFDTGDEHTMRSLLDPNVRSNIGDWEFIGMDELSRWFEEVLKKLGVDHRSLKIKRSHTIGDKVILRSTLEFQQGDKTMKVDMRLVATKINGRWTVEEVEMK | 0.81
40 | SEEKHYFDSMLEIWRHLMQTGDERLFSELFDPNALVLFNGRHDHGRDAFRWILLQLRIDHINVHLRDFRKQGNKIIIHSEIEVDFTVNGQRREDSHMQIIIFHKIDGRWYATSLEVQ | 1.53
41 | DEEKDLTEKIAHEIVHNYMTGDFDRFIELADPNVRFIIGDKIYHGREQLLTVLEHWRQEWRLSHVRLDEFEIQGDKVILHTTMNIKYGDKRIDVETEIKIIIINGRIRDWTIDRR | 1.42
42 | DEHEEKIHFILHILQEAWRTGDESQLENLLDPNVRIIIGDKKTHGREAVINLFNHWRVENIRVHLRDVRVQGDKIHLETEIQVDGNVNGKTDRIEFETEFIIRKVDGRWLIEVIRMH | 2.17
43 | RDEDEVVDHIARLIVEAWRTGDEDWLKKMADPNVKQHIHIDGKTEINHGREEMIHQLERLHRKLGVDHHHLKSSTVIGDKIKIHMEERIGDFSIFVHVEFIVINGRMKEIRISIERE | 0.931
44 | DDEDKRLETRARLWFEHFFTGDFEAMLWYLDPDTRLHINGREFHGMEHIVHHLEREILHLRVRIHLRRIKIFDGRLIIDIELEVHYGDKTHRTRAEIILIVVNGRIREIEVRES | 1.5
45 | SRESEEAKDDWEKIINDLRTGDFRSLRELFDPNVRLETENHEFHGWETAEHMVKRFDHIHVRREHFDHIEIQGEKVILDGTMRMEFIINGVVYEKEQRVIIIFLKYNGRWLIKEVEFI | 0.759
46 | DEEKKDVHKIWELFVEHYYTGDEEFLHRMADPNVRSDVNGKELHGRESLLSLMREWIDRADVIQHIDVEDRRIQGDKAYIRTRFVGLVNGKPVSTDVTIILSKVNGQWFMHRIVIK | 1.61
47 | DEEEKLFHDFASHFVRNFLTGNWDMIKRNADPTVQAHIGDKEIHGWDRIVDHLEERLRKIKGMRHHPRRLVFIGEKTYLDTELHFNGVHVETILIVIVVNGRLKSVEFHIE | 0.695
48 | DEDERDTRLALEELLRVSRTGNEHDHHRLVDPHVRMEINGRELHGWEVLVRLMHRYDHQELRVREVRVIGDKIDVDTENIVNFNGVEIVLETSIVARKIDGRWLIHSIHIG | 1.23
49 | DEEDELMKEYFELFWRDLLTGNEELLENLVDPHVRVKVGDKEFHGRHLLSKLASDMGVDHIQIEDMRVQGDKLSIDTTVDVNGKRRRMTLRARKVNGRWFFTELEVR | 1.5
50 | DEHEESVIWLLDVMFDAWRTGDEERVRRYLDPNVRIEVDGVSIHGRERVVEHLRRIDHLSVERVEIHHSTVINGVARTDGHVLLEFNIGDKHFRIERKSDSIVEKIDGRWIVHELTYR | 0.202

— the NTF2 design screens of Basanta et al. (2020)
